The text below walks through data of PMC8329861, “Structure of the unique tetrameric STENOFOLIA homeodomain bound with target promoter DNA”.

In data set [1] the target is T1, STF-HD WT (Medicago truncatula, UniProt G0ZGT3 85-190).
T1 sequence: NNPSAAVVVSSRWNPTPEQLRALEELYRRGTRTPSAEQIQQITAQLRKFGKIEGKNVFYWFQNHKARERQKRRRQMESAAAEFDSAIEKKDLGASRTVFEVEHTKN
Nature of the data set: X-ray crystallography (2.1 A); PAGE EMSA: 10 mM Tris-HCl pH 7.5, 100 mM KCl, 1 mM DTT, 2.5% glycerol, 5 ng/ul poly(dI-dC), 0.05% NP-40, 0.05 ug/ul protein, 5 fmol/ul DNA, room temperature 30. The conditions noted are these: protein: recombinant; tags: 6xHis-MBP removed by TEV; chain copies: 4; blunt. In general terms: Mobility shift assays separate free from complexed probe on a gel.

Data set [2] addresses T2, STF-HD L107M/L110M/L130M (STF_3M-HD) (Medicago truncatula, UniProt G0ZGT3 85-190, L107M;L110M;L130M).
T2 sequence: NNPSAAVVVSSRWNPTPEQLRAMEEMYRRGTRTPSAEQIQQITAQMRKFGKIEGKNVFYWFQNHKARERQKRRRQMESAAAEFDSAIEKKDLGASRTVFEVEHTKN
Nature of the data set: X-ray crystallography (SAD); SeMet protein; PAGE EMSA: 10 mM Tris-HCl pH 7.5, 100 mM KCl, 1 mM DTT, 2.5% glycerol, 5 ng/ul poly(dI-dC), 0.05% NP-40, 0.05 ug/ul protein, 5 fmol/ul DNA, room temperature 30. As to conditions: protein: recombinant, tags: 6xHis-MBP removed by TEV, chain copies: 4, blunt.

Another data set has as its target T3, STF-HD F167A/I171A (Medicago truncatula, UniProt G0ZGT3 85-190, F167A;I171A).
T3 sequence: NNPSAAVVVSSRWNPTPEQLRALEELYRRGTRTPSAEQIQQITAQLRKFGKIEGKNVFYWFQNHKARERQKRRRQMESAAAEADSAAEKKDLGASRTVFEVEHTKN
In words: fluorescence polarization; no significant decrease vs WT; value only in figure; PAGE EMSA: 10 mM Tris-HCl pH 7.5, 100 mM KCl, 1 mM DTT, 2.5% glycerol, 5 ng/ul poly(dI-dC), 0.05% NP-40, 0.05 ug/ul protein, 5 fmol/ul DNA, room temperature 30. The conditions noted are these: protein: recombinant; tags: 6xHis-MBP removed by TEV; label: 5' 6-FAM; blunt.

The next data set addresses T4, STF-HD S169E (Medicago truncatula, UniProt G0ZGT3 85-190, S169E).
T4 sequence: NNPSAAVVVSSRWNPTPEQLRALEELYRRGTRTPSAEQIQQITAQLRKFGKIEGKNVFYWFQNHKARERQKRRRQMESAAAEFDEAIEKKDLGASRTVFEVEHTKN
The data set is described as above. As to conditions: protein: recombinant; tags: 6xHis-MBP removed by TEV; label: 5' 6-FAM; blunt.

Data set [3] has as its target T1, STF-HD WT. Nature of the data set: EMSA (agarose); stable complex at 1:4 DNA:protein; PAGE EMSA: 10 mM Tris-HCl pH 7.5, 100 mM KCl, 1 mM DTT, 2.5% glycerol, 5 ng/ul poly(dI-dC), 0.05% NP-40, 0.05 ug/ul protein, 5 fmol/ul DNA, room temperature 30. As to conditions: protein: recombinant; tags: 6xHis-MBP removed by TEV; chain copies: 4; label: 5' 6-FAM; blunt.
The target in another data set is T5, His-MBP-STF85-190 R151A (Medicago truncatula, UniProt G0ZGT3 85-190, R151A).
T5 sequence: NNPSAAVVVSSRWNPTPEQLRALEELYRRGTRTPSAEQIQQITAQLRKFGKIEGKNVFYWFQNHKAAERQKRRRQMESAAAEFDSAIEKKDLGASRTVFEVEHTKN
In words: EMSA; binding retained; PAGE EMSA: 10 mM Tris-HCl pH 7.5, 100 mM KCl, 1 mM DTT, 2.5% glycerol, 5 ng/ul poly(dI-dC), 0.05% NP-40, 0.05 ug/ul protein, 5 fmol/ul DNA, room temperature 30. As to conditions: protein: recombinant; tags: N-terminal 6xHis-MBP; label: 3' biotin; blunt.

A further data set concerns the target T6, His-MBP-STF85-190 R113Q (Medicago truncatula, UniProt G0ZGT3 85-190, R113Q).
T6 sequence: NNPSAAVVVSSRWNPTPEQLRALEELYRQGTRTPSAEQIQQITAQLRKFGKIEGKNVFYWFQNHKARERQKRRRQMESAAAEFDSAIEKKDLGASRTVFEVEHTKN
Nature of the data set: EMSA; not affected; PAGE EMSA: 10 mM Tris-HCl pH 7.5, 100 mM KCl, 1 mM DTT, 2.5% glycerol, 5 ng/ul poly(dI-dC), 0.05% NP-40, 0.05 ug/ul protein, 5 fmol/ul DNA, room temperature 30. As to conditions: protein: recombinant; tags: N-terminal 6xHis-MBP; label: 3' biotin; blunt.

Another data set deals with T7, His-MBP-STF85-190 R96A (Medicago truncatula, UniProt G0ZGT3 85-190, R96A).
T7 sequence: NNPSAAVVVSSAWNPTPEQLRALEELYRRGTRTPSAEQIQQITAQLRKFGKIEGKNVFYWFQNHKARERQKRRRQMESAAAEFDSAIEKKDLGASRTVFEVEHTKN
In words: EMSA; PAGE EMSA: 10 mM Tris-HCl pH 7.5, 100 mM KCl, 1 mM DTT, 2.5% glycerol, 5 ng/ul poly(dI-dC), 0.05% NP-40, 0.05 ug/ul protein, 5 fmol/ul DNA, room temperature 30. As to conditions: protein: recombinant; tags: N-terminal 6xHis-MBP; label: 3' biotin; blunt.

B1: MtLOB39 22 bp (crystal) (dsDNA)
DNA 1: GCAAATTAATGATTTATTCAAG
DNA 2: CTTGAATAAATCATTAATTTGC
B1: the binding result (in the data set with STF-HD WT [1]; in data set [2]) was “binds” throughout.

B2: MtLOB39 22 bp FAM (dsDNA)
DNA 1: GCAAATTAATGATTTATTCAAG
DNA 2: CTTGAATAAATCATTAATTTGC
For the molecule B2, the binding result in the data set with STF-HD F167A/I171A, in the data set with STF-HD S169E and with STF-HD WT [3] was “binds” each time.

B3: TAAT probe (TAAT motifs) (dsDNA)
DNA 1: GCAAATTAATTATTTATTAAAG
DNA 2: CTTTAATAAATAATTAATTTGC
For the molecule B3, the binding result in the data set with His-MBP-STF85-190 R151A is “binds”.

B4: MtAS2 22 bp biotin (dsDNA)
DNA 1: TGGATTTAATAATGAAGTGACA
DNA 2: TGTCACTTCATTATTAAATCCA
For the molecule B4, the binding result in the data set with His-MBP-STF85-190 R113Q was “binds”; with His-MBP-STF85-190 R96A, “no binding”.

B5: MtAS2 22 bp FAM (dsDNA)
DNA 1: TGGATTTAATAATGAAGTGACA
DNA 2: TGTCACTTCATTATTAAATCCA
As to B5, in the data set with STF-HD WT [3], the binding result was “binds”.
